{"source": "patent US20040133357A1", "about": "(ABMAXIS, published 2004)", "binders": {"B1": {"name": "hAB3 (scFv)", "scFv": "EVQLVQSGGGVVQPGGSLRLSCAASGYTFTNYGMNWIRQAPGKGLEWVGWINTYTGEPTYAADFKRRVTFSLDTSKSTAYLQLNSLRAEDTAVYYCAKYPHYYGSSHWYFDVWGQGTLVTVSSGGGGSGGGGSGGGGSDIQMTQSPSSLSASVGDRVTITCSASQDISNYLNWYQQKPGKAPKVLIYFTSSLHSGVPSRFSGSGSGTDFTLTISSLQPEDFATYYCQQYSTVPWTFGQGTKVEIK", "notes": "Single chain format; not shown: HA-His6 tag at C-terminus"}, "B2": {"name": "hAB35 (scFv)", "scFv": "EVQLVQSGGGVVQPGGSLRLSCAASGYDFTHFGLNWIRQAPGKGPEWVGWINTYTGEPTYAQDFKRRVTFSLDTSKSTAYLQLNSLRAEDTAVYYCAKYPYYYGRSHWYFDVWGQGTLVTVSSGGGGSGGGGSGGGGSDIVMTQSPSTLSASPGERATITCNASQSIGSYLAWYQQKPGQAPKVLIYGASNLASGVPSRFSGSRSGTDFTLTISSLQPEDFAVYYCQQYNSTPWTFGGGTKLEIK", "notes": "as for B1"}, "B3": {"name": "hAB37 (scFv)", "scFv": "B2 scFv with D28N, T30S, I37L, P45L, T55N, P58T, Q62P", "notes": "as for B1"}, "B4": {"name": "hAB36 (scFv)", "scFv": "B2 scFv with F29L, T30S, F32Y, Q62P, K65T", "notes": "as for B1"}, "B5": {"name": "hAB16 (scFv)", "scFv": "B2 scFv with D28T, H31N, F32Y, L34M, P45L, Q62A", "notes": "as for B1"}, "B6": {"name": "hAB38 (scFv)", "scFv": "B2 scFv with D28N, T30S, I37L, Q62P, D63E", "notes": "as for B1"}, "B7": {"name": "hAB39 (scFv)", "scFv": "B2 scFv with I37V, P45L, I51V, P58T, Q62H, D63E", "notes": "as for B1"}, "B8": {"name": "hAB14 (scFv)", "scFv": "EVQLVQSGGGVVQPGGSLRLSCAASGYTFTNYGMNWIRQAPGKGLEWVGWINTYTGEPTYAADFKRRVTFSLDTSKSTAYLQLNSLRAEDTAVYYCAKYPYYYGRSHWYFDVWGQGTLVTVSSGGGGSGGGGSGGGGSAIRMTQSPSSVSASVGDTVTIACRASQAIRNDLTWYQQKPGTAPKLLIYGATTLQSGVPSRFSGSGSGTDFTLTISSLQPEDFATYYCQQSSTTPWTFGQGTKVDIK", "notes": "as for B1"}, "B9": {"name": "hAB7 (scFv)", "scFv": "B1 scFv with I37V, V68F, L83M, H101Y, S105R", "notes": "as for B1"}, "B10": {"name": "hAB8 (scFv)", "scFv": "B1 scFv with H101Y, S105R", "notes": "as for B1"}, "B11": {"name": "hAB15 (scFv)", "scFv": "EVQLVQSGGGVVQPGGSLRLSCAASGYTFTNYGMNWIRQAPGKGLEWVGWINTYTGEPTYAADFKRRVTFSLDTSKSTAYLQLNSLRAEDTAVYYCAKYPYYYGRSHWYFDVWGQGTLVTVSSGGGGSGGGGSGGGGSDIVMTQSPSTLSASPGERATITCHASQSISTYLAWYQQKPGQAPRVLIYGASNLASGVPNRFSGSGSGTDFTLTISSLQPEDFAVYYCQQYNSAPWTFGGGTKVEIK", "notes": "as for B1"}, "B12": {"name": "hAB11 (scFv)", "scFv": "B1 scFv with Q6E, V11L, I37V, V68F, L83M, S105R", "notes": "as for B1"}, "B13": {"name": "hAB12 (scFv)", "scFv": "B1 scFv with Q6E, V11L, I37V, V68F, L83M, H101Y, S105R", "notes": "as for B1"}, "B14": {"name": "hAB5 (scFv)", "scFv": "B1 scFv with S17T, S21T, I37V, L83M", "notes": "as for B1"}, "B15": {"name": "hAB9 (scFv)", "scFv": "B1 scFv with I37V, V68F, L83M, H101Y, S105R, M142L, V153A, T160S, K183Q, V184L", "notes": "as for B1"}, "B16": {"name": "hAB4 (scFv)", "scFv": "B1 scFv with E1Q, S21T, I37V, V68F, F70I, T78Q, L83M", "notes": "as for B1"}, "B17": {"name": "hAB10 (scFv)", "scFv": "B1 scFv with Q6E, V11L, I37V, V68F, L83M, H101Y, S105T", "notes": "as for B1"}}, "note": "Positions count from the first letter of the chain named.", "data": [{"target": "T1, purified recombinant human VEGF165 (human, UniProt P15692 27-191, glycosylated)", "T1 construct": "mature; Bought from Calbiochem; also called VEGF protein (Calbiochem); homodimeric VEGF protein", "T1 sequence (P15692 other isoform, or with tags, fused parts or gaps limits assumed)": "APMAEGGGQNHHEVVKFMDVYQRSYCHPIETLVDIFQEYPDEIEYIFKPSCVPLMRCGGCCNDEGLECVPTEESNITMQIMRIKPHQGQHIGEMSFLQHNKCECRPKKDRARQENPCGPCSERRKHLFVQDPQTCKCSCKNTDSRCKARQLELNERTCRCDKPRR", "experiment": "SPR (BIAcore), scFv over VEGF immobilized on CM5 chip, 25 C; reference hAB1", "protocol": "(§1) BIAcore Biosensor Assay was used to determine antibody affinity. VEGF protein (purchased from Calbiochem) was coupled to a CM-5 biosensor ship by amine coupling. After immobilization, CM-5 chips with 200 to 1000 response unites of VEGF were kept at 4° C. before use. All experiments were performed at 25° C. or 35° C. Each sample in PBS buffer was injected over VEGF surface at a flow rate of 20 ul/min using Biacore 1000 (Biacore AB, Sweden), and bound antibodies were removed from chip by 10 ul of glycine-HCl, PH 1.5 at the end of each cycle. Each sensorgram was recorded and normalized to a PBS base line.", "units": {"fold higher binding affinity than the parental/reference antibody (hAB1)": "fold"}, "values": [{"binder": "B1", "fold higher binding affinity than the parental/reference antibody (hAB1)": "~4"}]}, {"target": "T1, purified recombinant human VEGF165", "experiment": "SPR (BIAcore), purified scFv over VEGF immobilized on CM5 chip, 35 C", "protocol": "(§2) Antibody fragments in the format of single chain were expressed as described below and purified. The measurement was done by measuring the change of SPR units (y-axis) vs time (x-axis) when a purified antibody binds its antigen (VEGF) immobilized on the CM5 biochip at 35° C. Kd values were calculated by the […].\nas §1", "units": {"Kd": "nM", "koff": "s⁻¹", "kon": "M⁻¹ s⁻¹"}, "values": [{"binder": "B2", "Kd": 0.7, "hAB1 Kd/Variant Kd": 59.1, "koff": "6.2e-05", "kon": 82800}, {"binder": "B3", "Kd": 0.8, "hAB1 Kd/Variant Kd": 51.8, "koff": "4.4e-05", "kon": 57300}, {"binder": "B4", "Kd": 0.7, "hAB1 Kd/Variant Kd": 59.1, "koff": "3.7e-05", "kon": 47500}, {"binder": "B5", "Kd": 1.6, "hAB1 Kd/Variant Kd": 25.9, "koff": "4.7e-05", "kon": 29300}, {"binder": "B6", "Kd": 0.9, "hAB1 Kd/Variant Kd": 46, "koff": "4.8e-05", "kon": 50000}, {"binder": "B7", "Kd": 1.8, "hAB1 Kd/Variant Kd": 23, "koff": "4.8e-05", "kon": 28400}, {"binder": "B8", "Kd": 3.6, "hAB1 Kd/Variant Kd": 11.5, "koff": "6.2e-05", "kon": 17100}, {"binder": "B9", "Kd": 1.1, "hAB1 Kd/Variant Kd": 37.6, "koff": "9e-06", "kon": 8500}, {"binder": "B10", "Kd": 1.1, "hAB1 Kd/Variant Kd": 37.6, "koff": "1.7e-05", "kon": 15800}, {"binder": "B11", "Kd": 3.7, "hAB1 Kd/Variant Kd": 11.2, "koff": "8.6e-05", "kon": 23400}]}, {"target": "T1, purified recombinant human VEGF165", "experiment": "SPR (BIAcore), purified scFv over VEGF immobilized on CM5 chip, 25 C", "protocol": "as §2, with “25°” for “35°”\nas §1", "units": {"Kd": "nM", "koff": "s⁻¹", "kon": "M⁻¹ s⁻¹"}, "values": [{"binder": "B1", "Kd": 3.1, "hAB1 Kd/Variant Kd": 4.2, "koff": 0.000115, "kon": 37400}, {"binder": "B12", "Kd": 5.4, "hAB1 Kd/Variant Kd": 2.6, "koff": "8.7e-05", "kon": 15900}, {"binder": "B13", "Kd": 1.5, "hAB1 Kd/Variant Kd": 9.2, "koff": "3e-06", "kon": 2300}, {"binder": "B14", "Kd": 5.9, "hAB1 Kd/Variant Kd": 2.2, "koff": "7.2e-05", "kon": 12200}, {"binder": "B15", "Kd": 4.9, "hAB1 Kd/Variant Kd": 2.7, "koff": "1.4e-05", "kon": 2900}, {"binder": "B16", "Kd": 26, "hAB1 Kd/Variant Kd": 0.5, "koff": 0.000104, "kon": 4000}, {"binder": "B17", "Kd": 2.2, "hAB1 Kd/Variant Kd": 6.3, "koff": "3e-06", "kon": 1100}]}, {"target": "T1, purified recombinant human VEGF165", "experiment": "SPR (BIAcore), scFv over VEGF immobilized on CM5 chip; reference hAB1", "protocol": "as §2, with “25°” for “35°”\nas §1", "units": {"fold higher binding affinity than hAB1": "fold"}, "values": [{"binder": "B1", "fold higher binding affinity than hAB1": 4}, {"binder": "B16", "fold higher binding affinity than hAB1": 2}]}]}
